Results on 2 molecules are retold here after patent publication CN113912728A (QYUNS THERAPEUTICS CO LTD, dated 2022).

Assay [1] has as its target T1, 人白介素-33 (human interleukin-33) (human, UniProt O95760 112-270).
T1 sequence: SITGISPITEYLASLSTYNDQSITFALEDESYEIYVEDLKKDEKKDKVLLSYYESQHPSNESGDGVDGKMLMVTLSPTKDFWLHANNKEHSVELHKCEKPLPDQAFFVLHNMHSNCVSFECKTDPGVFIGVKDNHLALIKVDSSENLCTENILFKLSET
In words: cell-based or functional assay.

The target of assay [2] is 天然人白介素-33 (natural human interleukin-33 from HFL-1 cell lysate) (human) (UniProt O95760). The assay is described as follows: cell-based or functional assay.
Assay [3] deals with T1, 人白介素-33 (human interleukin-33). In words: SPR, Biacore T200, 25℃, antibody captured on Protein A chip, IL-33 as analyte, 1:1 model.
For assay [4], the target named is T2, 天然人白介素-33 (natural human interleukin-33 from HFL-1 cell lysate) (human, UniProt O95760 1-270, limits assumed).
T2 sequence (looked up): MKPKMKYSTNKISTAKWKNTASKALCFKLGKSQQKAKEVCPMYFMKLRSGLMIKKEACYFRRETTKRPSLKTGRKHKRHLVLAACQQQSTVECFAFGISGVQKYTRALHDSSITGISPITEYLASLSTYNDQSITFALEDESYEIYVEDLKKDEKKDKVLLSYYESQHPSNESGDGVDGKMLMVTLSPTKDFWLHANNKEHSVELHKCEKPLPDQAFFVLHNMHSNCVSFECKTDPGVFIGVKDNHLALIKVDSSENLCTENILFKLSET
In words: cell-based or functional assay.

In assay [1], Etokimab/ANB020 (antibody) came in with a 中和人白介素-33诱导人全血释放IFN-γ, IC50 of 31.9 ng/mL; a 中和人白介素-33诱导的KU812细胞释放IL-5, IC50 of 44 ng/mL; a 抑制重组人白介素-33诱导HEK Blue IL-33细胞中NF-κB/AP-1信号转导 (SEAP reporter), IC50 of 6.05 ng/mL. In assay [2], this molecule displayed a 抑制天然人白介素-33诱导HEK Blue IL-33细胞中NF-κB/AP-1信号转导 (SEAP reporter), IC50 of 2.5 ng/mL. In assay [3], this molecule came in with a dissociation constant (Kd) of 0.869 nM, a koff of 0.000369 s⁻¹ and a kon of 424000 M⁻¹ s⁻¹.

B1: QX007N(HZD78-70) (antibody, V domains shown)
VH: EVQLVESGGGLVQPGGSLRLSCAASGFSLSSYHMIWVRQAPGKGLEWVGVIYPNSNIYYATWAKGRFTISRDNSKNTLYLQMNSLRAEDTAVYYCARTIYVHVYSALSIWGQGTLVTVSS
VL: AFQMTQSPSSVSASVGDRVTITCQASESVLNEVSWYQQKPGKAPKLLIYFASKLASGVPSRFSGSGSGTDFTLTISSLQPEDFATYYCQQDWSMDNIDNAFGGGTKVEIKR
As for B1, in assay [1], the “中和人白介素-33诱导人全血释放IFN-γ, IC50” value came out at 16 ng/mL; the “中和人白介素-33诱导的KU812细胞释放IL-5, IC50” value stood at 5.87 ng/mL; the “抑制重组人白介素-33诱导HEK Blue IL-33细胞中NF-κB/AP-1信号转导 (SEAP reporter), IC50” value came to 6.67 ng/mL. In assay [4], the “抑制天然人白介素-33诱导HEK Blue IL-33细胞中NF-κB/AP-1信号转导 (SEAP reporter), IC50” value came out at 3.91 ng/mL. In assay [3], this molecule came in with a Kd of 1.23 nM, a koff of 0.000481 s⁻¹ and an association rate constant (kon) of 392000 M⁻¹ s⁻¹.

The term Kd denotes the free concentration of one partner at which half of the binding sites on the other are occupied at equilibrium, for simple one-to-one binding. Read a low Kd as higher affinity. A word on the koff: it is the first-order rate constant of dissociation. Usually kon stands for the second-order rate constant of association. Low values mean slow association, high ones fast association.
